The labels stand for the following.
B1: CBP TAZ2 domain (residues 1764–1855; C1776A, C1784A, C1827A, C1828A) (domain or fragment, mouse, UniProt P45481 1764-1855, looked up)
chain: SPQESRRLSIQRAIQSLVHAAQCRNANCSLPSCQKMKRVVQHTKGCKRKTNGGCPVCKQLIALAAYHAKHCQENKCPVPFCLNIKHKLRQQQ
notes: CBP TAZ2 domain, mouse, UniProt P45481, residues 1764–1855, with four cysteine to alanine mutations that increase solubility and stability; source: E. coli (BL21), purified (amylose sepharose, S-sepharose, Superdex 75)
B2: BMAL1 linker-switch peptide (residues 613–626) (peptide, UniProt Q9WTL8-4 613-626, looked up)
peptide: LGGPVDFSDLPWPL
notes: BMAL1, mouse, residues 613–626 (linker and switch of the TAD); numbers count on: isoform Q9WTL8-4; source: synthetic peptide (Pierce, 95% purity)
B3: CLOCK:BMAL1 bHLH-PAS-AB heterodimer (complex)
chain 1: VEEDDKDKAKRVSRNKSEKKRRDQFNVLIKELGSMLPGNARKMDKSTVLQKSIDFLRKHKETTAQSDASEIRQDWKPTFLSNEEFTQLMLEALDGFFLAIMTDGSIIYVSESVTSLLEHLPSDLVDQSIFNFIPEGEHSEVYKILSTHLLESDSLTPEYLKSKNQLEFCCHMLRGTIDPKEPSTYEYVRFIGNFKSLTSVSTSTHNGFEGTIQRTHRPSYEDRVCFVATVRLATPQFIKEMCTVEEPNEEFTSRHSLEWKFLFLDHRAPPIIGYLPFEVLGTSGYDYYHVDDLENLAKCHEHLMQYGKGKSCYYRFLTKGQQWIWLQTHYYITYHQWNSRPEFIVCTHTVVSYAEVRAERRRELGIEESL
chain 2: not shown
notes: CLOCK bHLH PAS-AB, mouse, UniProtKB O08785, residues 26–395; BMAL1 bHLH PAS-AB, mouse, UniProtKB Q9WTL8-4, residues 62–441; numbers count on: isoform Q9WTL8-4; Purified on Ni-NTA and cleaved with His-TEV; also called CLOCK:BMAL1 protomer; source: insect cells (Spodoptera frugiperda or Hi5), purified (Ni-NTA, TEV cleavage, heparin, Superdex 200); copies: 1 + 1
B4: trans-locked BMAL1 switch peptide P625A (FSDLPWAL) (peptide)
peptide: FSDLPWAL
notes: numbers count on: isoform Q9WTL8-4; All trans; also called P625A switch; trans-locked switch; source: synthetic peptide (solid phase, Fmoc chemistry; C18 HPLC)
B5: [5,6] TAMRA-labeled BMAL1 minimal TAD peptide (residues 594–626), WT (peptide)
peptide: not shown
modifications: 5,6-TAMRA on the N-terminus; free carboxyl C-terminus
notes: BMAL1 minimal TAD with helix and switch regions, residues 594–626; numbers count on: isoform Q9WTL8-4; also called [5,6]; TAMRA-BMAL1 TAD probe; native TAD probe; source: synthetic peptide (Bio-Synthesis, 95% purity)
B6: BMAL1 TAD L606A/L607A (residues 579–626) (domain or fragment)
chain: not shown
notes: numbers count on: isoform Q9WTL8-4; Used at natural abundance or 15N-labelled; also called L606A/L607A TAD mutant; 15N BMAL1 TAD L606A/L607A; source: E. coli Rosetta (DE3), purified (Ni-NTA, TEV cleavage, Superdex 75); not shown: His6-NusA-XL (HNXL), N-terminal, cleaved
B7: CBP KIX domain (residues 586–672) (domain or fragment)
chain: not shown
notes: CBP KIX domain, mouse, UniProt P45481, residues 586–672; tagless; Plasmid was a gift from Peter Wright; Used at natural abundance or uniformly 15N-labelled; also called WT KIX; 15N CBP KIX; source: E. coli Rosetta (DE3), purified (Ni-NTA through native histidines, size exclusion)
B8: BMAL1 TAD (residues 579–626) (domain or fragment)
chain: not shown
notes: numbers count on: isoform Q9WTL8-4; Used at natural abundance or uniformly 15N-labelled; also called 15N BMAL1 TAD; source: E. coli Rosetta (DE3), purified (Ni-NTA, TEV cleavage, Superdex 75); not shown: His6-NusA-XL (HNXL), N-terminal, cleaved

For data set [1], the target named is B5. In words: fluorescence polarisation; CBP KIX, TAZ1 or TAZ2 titrated onto [5,6] TAMRA-labeled BMAL1 minimal TAD probes (25 nM in the legend, 50 nM in the methods); 10 mM MES pH 6.5, 50 mM NaCl, 0.05% Tween-20; room temperature; one-site specific binding with Hill coefficient; apparent KDs. As to conditions: both partners purified. On the technique in general: In fluorescence polarisation assays a small probe gives low polarisation when free and higher when bound to something large.

Data set [2] addresses B7. The experiment in a line: NMR titration; 15N-1H HSQC of 100 μM 15N CBP KIX with stepwise additions of natural abundance BMAL1 TAD or truncated peptides; 25°C; 10 mM MES pH 6.5, 50 mM NaCl, 10% D2O. As to conditions: both partners purified.
Data set [3] deals with the molecule itself. The experiment in a line: cryo-EM structure; two CLOCK:BMAL1 bHLH-PAS-AB protomers on a nucleosome with tandem E-boxes 6 bp apart (SHL +3.9/+5.1); GraFix glutaraldehyde cross-linked; 4.1 Å overall, 8–12 Å in the PAS region.
The target in data set [4] is B1. The experiment in a line: fluorescence polarisation; CBP KIX, TAZ1 or TAZ2 titrated onto [5,6] TAMRA-labeled BMAL1 minimal TAD probes (25 nM in the legend, 50 nM in the methods); 10 mM MES pH 6.5, 50 mM NaCl, 0.05% Tween-20; room temperature; one-site specific binding with Hill coefficient; apparent KDs. The following applies: both partners purified.
Data set [5] has as its target B1. In words: NMR titration; 15N-1H HSQC of 100 μM 15N BMAL1 TAD WT or L606A/L607A with stepwise additions of CBP KIX (WT or 3mut), TAZ1 or TAZ2; 25°C; 10 mM MES pH 6.5, 50 mM NaCl, 10% D2O; KD from fits of concentration-dependent CSPs, apparent. As to conditions: both partners purified.
For data set [6], the target named is B8. In words: ITC; 220–230 μM CBP KIX WT or 3mut titrated into 20–25 μM BMAL1 TAD WT or L606A/L607A; 25°C; 10 mM MES pH 6.5, 50 mM NaCl; one-site model. The following applies: both partners purified. For orientation: ITC needs no label: the signal is the heat of the interaction.
The target of data set [7] is B7. Described as above. The following applies: both partners purified.

The text below walks through data of doi:10.1101/2025.09.04.674342, “Tandem association of CLOCK:BMAL1 complexes on DNA enables recruitment of CBP/p300 through multivalent interactions” (bioRxiv, 2025).

In the case of B1, the “fold lower affinity than TAZ1” value in data set [1] is ~20 fold.

Consider B2, for which the binding result in data set [2] is given as “binds”.

As to B3, the binding result in data set [3] is on record as “binds”.

B4: the binding result in data set [2] is “binds”.

On to B5, for which the binding result in data set [4] is reported as “binds”.

Take B6: the binding result in data set [5] is on record as “binds”.

Take B7: the stoichiometry N (usually a count of units in the complex or per binding partner) in data set [6] was in the range of 0.8 to 1.1.

In the case of B8, the Kd (usually a measure of binding affinity in units of concentration) in data set [7] was ~2000 nM. In addition, in data set [5], the binding result was “binds”.
